Results: paper PMC7839550 (Angewandte Chemie (International Ed. in English), 2020)
Substitutions are numbered along the chain they refer to. Names may count otherwise.

B1: AtHMT (Arabidopsis thaliana) (protein)
chain: MAEEQQNSDQSNGGNVIPTPEEVATFLHKTVEEGGWEKCWEEEITPWDQGRATPLIVHLVDTSSLPLGRALVPGCGGGHDVVAMASPERFVVGLDISESALAKANETYGSSPKAEYFSFVKEDVFTWRPTELFDLIFDYVFFCAIEPEMRPAWAKSMYELLKPDGELITLMYPITDHVGGPPYKVDVSTFEEVLVPIGFKAVSVEENPHAIPTRKGKEKLGRWKKIN
B2: AtHMT (Arabidopsis thaliana; V140T) (protein)
chain: B1 chain with V140T

Key:
RsHMT = target: T1, RsHMT (Raphanus sativus, UniProt C6L2E7); assay: alkylation of SAH, specific activity; type: biochemical; conditions: co-substrate SAH
T1 sequence (C6L2E7 1-226): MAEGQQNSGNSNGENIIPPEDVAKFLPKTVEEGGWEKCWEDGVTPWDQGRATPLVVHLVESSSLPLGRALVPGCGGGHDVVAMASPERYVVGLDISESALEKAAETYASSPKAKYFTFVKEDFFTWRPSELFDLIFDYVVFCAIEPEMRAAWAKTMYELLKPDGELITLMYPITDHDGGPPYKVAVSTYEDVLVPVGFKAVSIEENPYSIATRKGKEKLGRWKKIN

AtHMT [1] = target: T2, AtHMT (Arabidopsis thaliana, UniProt Q0WP12, V140T); assay: kinetic analysis of methyl transfer to SAH; type: biochemical; conditions: read-out: Methyltransferase activity / K M, MeI; co-substrate SAH
T2 sequence (Q0WP12 1-227 V140T): B1 chain with V140T

AtHMT [2] = target: T3, AtHMT (Arabidopsis thaliana, UniProt Q0WP12); assay: kinetic analysis of methyl transfer to SAH; type: biochemical; conditions: read-out: Methyltransferase activity / K M, MeI; co-substrate SAH
T3 sequence (Q0WP12 1-227): B1 chain

[3] = substrate: CCI; assay: kinetic analysis of ethyl transfer to SAH; type: biochemical, Arabidopsis thaliana; conditions: co-substrate SAH

Row | Molecule | alkylation of SAH, specific activity (RsHMT) | Km (AtHMT [1]) | Km (AtHMT [2]) | Km [3] | kcat [3] | kcat/Km [3]
1 | CCI [ethyl iodide] | all three enzymes had promiscuous activity against ethyl iodide | – | – | – | – | –
2 | CI [methyl iodide] | All three HMTs were active using methyl iodide | 4.7 ± 0.76 mM | 1.43 ± 0.19 mM | – | – | –
3 | B1 | – | – | – | 9.36 ± 1.66 mM | 0.006 ± 0.0005 s⁻¹ | 0.633 M⁻¹ s⁻¹
4 | B2 | – | – | – | 11.14 ± 1.52 mM | 0.0397 ± 0.00267 s⁻¹ | 3.57 M⁻¹ s⁻¹
